From patent US20260201046A1 (BIO RAD LABORATORIES, published 2026)

Biological target: T1, recombinant mouse sIL-6Ra (20-357) (mouse, UniProt P22272 20-357)
T1 construct: range 20-357; The CD33 part of the plasmid name is not explained; also called recombinant sIL-6Ra; recombinant soluble IL-6Ra
T1 sequence: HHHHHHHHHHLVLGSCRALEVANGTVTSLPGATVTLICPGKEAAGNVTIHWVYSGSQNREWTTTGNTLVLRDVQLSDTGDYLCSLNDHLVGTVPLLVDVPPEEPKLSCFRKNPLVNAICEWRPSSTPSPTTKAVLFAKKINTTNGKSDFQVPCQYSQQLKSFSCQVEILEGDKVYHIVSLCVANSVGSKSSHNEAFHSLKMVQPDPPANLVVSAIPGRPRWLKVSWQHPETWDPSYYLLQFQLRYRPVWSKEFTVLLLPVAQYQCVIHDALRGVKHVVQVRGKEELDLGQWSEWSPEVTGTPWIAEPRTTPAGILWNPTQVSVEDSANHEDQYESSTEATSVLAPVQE
Experiment: SPR (Biacore), sIL-6Ra (20-357) amine-coupled to CM5 chip, antibody as analyte, 1:1 Langmuir fit
Protocol: The antigen-antibody affinity of four antibodies (rAb #22, rAb #52, rAb #62, a rat mAb RB01) were determined by an analysis service employing a surface plasmon resonance technology (Beijing Xtalbio Ltd. Co). It started with a directly immobilization of recombinant mouse sIL-6Ra (20-357) on a CM5 S sensor chip using Biacore® S200 machine. Approximately 27.8 resonance units (RU) of the sIL-6Ra (20-357) were immobilized at 25° C. with an amine coupling kit following the standard amine coupling procedure. The remaining active sites on the sensor chip were blocked with 1 M ethanolamine-HCl solution, pH 8.5 at a flow rate of 10 μL/min for 7 min, to finally reach 27.8 RU. The flow cells were washed with the injection of HBS-EP running buffer at 30 μL/min. For each antibody, a 2-fold serial dilution (0, 0.39 nM-200 nM) was injected at 15° C. to a channel with a flow rate of 30 μL/min for 120s and dissociation was followed for 720s. The curves were locally fitted with Biacore®8K analysis software (BIAevaluation) using a 1:1 Langmuir binding model.

B1: rAb #52 (antibody, V domains shown)
VH: QSLEESGGDLVKPGASLTLACTASGFSFSSGYYMCWVRQAPGKGLEWIGCIYTGSDTTYYASWAKGRFTISETSSTAATLQMTSLTAADTATYFCARDLGSRGNLWGPGTLVTVSS
VL: DIVMTQTPSSVSAAVGDTVTINCQASENIYSFLTWYQQKPGQRPKLLIYRASTLASGVPSRFKGSGSGTDFTLTISDLECADAATYYCQRNAYSSWAFGGGTEVVVK
notes: also called Antibody 52; recombinant rabbit monoclonal antibody from fusion clone #52
Kd: 9.43 pM
